In patent publication US20180155451A1 (published 2018) one finds He/Con_2b and He/Con_1a data, which are given here for 14 molecules.

The target of assay [1] is T1, FcγRIIb extracellular domain with C-terminal His tag (human, UniProt P31994 43-217).
T1 construct: extracellular domain; Expressed in FreeStyle293 cells; analyte in the Biacore assay; also called FcgRIIb; 2b; not shown: His tag at the C terminus
T1 sequence (looked up): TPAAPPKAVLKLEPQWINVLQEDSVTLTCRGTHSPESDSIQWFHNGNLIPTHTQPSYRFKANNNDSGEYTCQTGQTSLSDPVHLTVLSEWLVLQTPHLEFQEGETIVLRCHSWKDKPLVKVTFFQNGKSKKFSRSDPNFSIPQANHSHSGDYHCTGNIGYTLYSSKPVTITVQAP
In words: SPR (Biacore), antibody captured on antigen-peptide chip, FcγR as analyte; relative binding. (Surface plasmon resonance follows binding to a sensor surface in real time, without labels.)

For assay [2], the target named is T2, FcγRIa extracellular domain with C-terminal His tag (human, UniProt P12314 16-292).
T2 construct: extracellular domain; Expressed in FreeStyle293 cells; analyte in the Biacore assay; also called FcgRI; 1a; not shown: His tag at the C terminus
Described as above.

T2 sequence (P12314 16-292): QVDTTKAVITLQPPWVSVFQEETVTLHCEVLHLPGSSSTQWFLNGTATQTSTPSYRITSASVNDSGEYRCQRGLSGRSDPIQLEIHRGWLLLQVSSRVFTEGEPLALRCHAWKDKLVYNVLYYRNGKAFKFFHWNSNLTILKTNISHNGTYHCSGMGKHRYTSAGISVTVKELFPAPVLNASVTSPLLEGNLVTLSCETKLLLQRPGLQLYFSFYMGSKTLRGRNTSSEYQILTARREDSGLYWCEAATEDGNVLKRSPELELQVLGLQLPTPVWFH

B1: GpH7-A5/GpH7-B3 variant E269_18N/GpL16-k0 (He Ab) (antibody, human IgG1, kappa)
heavy 1: not shown
heavy 2: not shown
light: DIVMTQSPLSLPVTPGEPASISCQASESLVHSNRNTYLHWYLQKPGQSPQLLIYKVSNRFSGVPDRFSGSGSGTDFTLKISRVEAEDVGVYYCSQNTHVPPTFGQGTKVEIERTVAAPSVFIFPPSDEQLKSGTASVVCLLNNFYPREAKVQWKVDNALQSGNSQESVTEQDSKDSTYSLSSTLTLSKADYEKHKVYACEVTHQGLSSPVTKSFNRGEC
notes: Heterodimerized anti-glypican-3 IgG1; the mutation stands in the GpH7-B3 chain only
As for B1, the He/Con_2b in assay [1] was 44.8 % of GpH7-A5/GpH7-B3/GpL16-k0 (=100). Also, the He/Con_1a in assay [2] is 102 % of GpH7-A5/GpH7-B3/GpL16-k0 (=100).

B2: GpH7-A5/GpH7-B3 variant Y300_03V/GpL16-k0 (He Ab) (antibody, human IgG1, kappa)
heavy 1: not shown
heavy 2: not shown
light: DIVMTQSPLSLPVTPGEPASISCQASESLVHSNRNTYLHWYLQKPGQSPQLLIYKVSNRFSGVPDRFSGSGSGTDFTLKISRVEAEDVGVYYCSQNTHVPPTFGQGTKVEIERTVAAPSVFIFPPSDEQLKSGTASVVCLLNNFYPREAKVQWKVDNALQSGNSQESVTEQDSKDSTYSLSSTLTLSKADYEKHKVYACEVTHQGLSSPVTKSFNRGEC
notes: as for B1
With B2, the He/Con_2b in assay [1] was 73.9 % of GpH7-A5/GpH7-B3/GpL16-k0 (=100). For the same molecule, in assay [2], the He/Con_1a is 117 % of GpH7-A5/GpH7-B3/GpL16-k0 (=100).

B3: GpH7-A5/GpH7-B3 variant H268_11K/GpL16-k0 (He Ab) (antibody, human IgG1, kappa)
heavy 1: not shown
heavy 2: not shown
light: DIVMTQSPLSLPVTPGEPASISCQASESLVHSNRNTYLHWYLQKPGQSPQLLIYKVSNRFSGVPDRFSGSGSGTDFTLKISRVEAEDVGVYYCSQNTHVPPTFGQGTKVEIERTVAAPSVFIFPPSDEQLKSGTASVVCLLNNFYPREAKVQWKVDNALQSGNSQESVTEQDSKDSTYSLSSTLTLSKADYEKHKVYACEVTHQGLSSPVTKSFNRGEC
notes: as for B1
On to B3, for which, in assay [1], the He/Con_2b was 83 % of GpH7-A5/GpH7-B3/GpL16-k0 (=100). Further, in assay [2], the He/Con_1a is 106 % of GpH7-A5/GpH7-B3/GpL16-k0 (=100).

B4: GpH7-A5/GpH7-B3 variant Y300_01G/GpL16-k0 (He Ab) (antibody, human IgG1, kappa)
heavy 1: not shown
heavy 2: not shown
light: DIVMTQSPLSLPVTPGEPASISCQASESLVHSNRNTYLHWYLQKPGQSPQLLIYKVSNRFSGVPDRFSGSGSGTDFTLKISRVEAEDVGVYYCSQNTHVPPTFGQGTKVEIERTVAAPSVFIFPPSDEQLKSGTASVVCLLNNFYPREAKVQWKVDNALQSGNSQESVTEQDSKDSTYSLSSTLTLSKADYEKHKVYACEVTHQGLSSPVTKSFNRGEC
notes: as for B1
Take B4: the He/Con_2b in assay [1] is 48.4 % of GpH7-A5/GpH7-B3/GpL16-k0 (=100). The He/Con_1a in assay [2] was 116 % of GpH7-A5/GpH7-B3/GpL16-k0 (=100).

B5: GpH7-A5/GpH7-B3 variant S324_07I/GpL16-k0 (He Ab) (antibody, human IgG1, kappa)
heavy 1: not shown
heavy 2: not shown
light: DIVMTQSPLSLPVTPGEPASISCQASESLVHSNRNTYLHWYLQKPGQSPQLLIYKVSNRFSGVPDRFSGSGSGTDFTLKISRVEAEDVGVYYCSQNTHVPPTFGQGTKVEIERTVAAPSVFIFPPSDEQLKSGTASVVCLLNNFYPREAKVQWKVDNALQSGNSQESVTEQDSKDSTYSLSSTLTLSKADYEKHKVYACEVTHQGLSSPVTKSFNRGEC
notes: as for B1
Regarding B5, the He/Con_2b in assay [1] was 95.7 % of GpH7-A5/GpH7-B3/GpL16-k0 (=100). Also, the He/Con_1a in assay [2] was 102 % of GpH7-A5/GpH7-B3/GpL16-k0 (=100).

B6: GpH7-A5/GpH7-B3 variant H268_14T/GpL16-k0 (He Ab) (antibody, human IgG1, kappa)
heavy 1: not shown
heavy 2: not shown
light: DIVMTQSPLSLPVTPGEPASISCQASESLVHSNRNTYLHWYLQKPGQSPQLLIYKVSNRFSGVPDRFSGSGSGTDFTLKISRVEAEDVGVYYCSQNTHVPPTFGQGTKVEIERTVAAPSVFIFPPSDEQLKSGTASVVCLLNNFYPREAKVQWKVDNALQSGNSQESVTEQDSKDSTYSLSSTLTLSKADYEKHKVYACEVTHQGLSSPVTKSFNRGEC
notes: as for B1
B6: the He/Con_2b in assay [1] is 86 % of GpH7-A5/GpH7-B3/GpL16-k0 (=100). In assay [2], the He/Con_1a is 112 % of GpH7-A5/GpH7-B3/GpL16-k0 (=100).

B7: GpH7-A5/GpH7-B3 variant S298_19Q/GpL16-k0 (He Ab) (antibody, human IgG1, kappa)
heavy 1: not shown
heavy 2: not shown
light: DIVMTQSPLSLPVTPGEPASISCQASESLVHSNRNTYLHWYLQKPGQSPQLLIYKVSNRFSGVPDRFSGSGSGTDFTLKISRVEAEDVGVYYCSQNTHVPPTFGQGTKVEIERTVAAPSVFIFPPSDEQLKSGTASVVCLLNNFYPREAKVQWKVDNALQSGNSQESVTEQDSKDSTYSLSSTLTLSKADYEKHKVYACEVTHQGLSSPVTKSFNRGEC
notes: as for B1
On to B7, for which the He/Con_2b in assay [1] was 73.3 % of GpH7-A5/GpH7-B3/GpL16-k0 (=100). Also, the He/Con_1a in assay [2] is 109 % of GpH7-A5/GpH7-B3/GpL16-k0 (=100).

B8: GpH7-A5/GpH7-B3 variant S324_03V/GpL16-k0 (He Ab) (antibody, human IgG1, kappa)
heavy 1: not shown
heavy 2: not shown
light: DIVMTQSPLSLPVTPGEPASISCQASESLVHSNRNTYLHWYLQKPGQSPQLLIYKVSNRFSGVPDRFSGSGSGTDFTLKISRVEAEDVGVYYCSQNTHVPPTFGQGTKVEIERTVAAPSVFIFPPSDEQLKSGTASVVCLLNNFYPREAKVQWKVDNALQSGNSQESVTEQDSKDSTYSLSSTLTLSKADYEKHKVYACEVTHQGLSSPVTKSFNRGEC
notes: as for B1
As for B8, the He/Con_2b in assay [1] was 97.8 % of GpH7-A5/GpH7-B3/GpL16-k0 (=100). For the same molecule, the He/Con_1a in assay [2] is 104 % of GpH7-A5/GpH7-B3/GpL16-k0 (=100).

B9: GpH7-A5/GpH7-B3 variant S324_02A/GpL16-k0 (He Ab) (antibody, human IgG1, kappa)
heavy 1: not shown
heavy 2: not shown
light: DIVMTQSPLSLPVTPGEPASISCQASESLVHSNRNTYLHWYLQKPGQSPQLLIYKVSNRFSGVPDRFSGSGSGTDFTLKISRVEAEDVGVYYCSQNTHVPPTFGQGTKVEIERTVAAPSVFIFPPSDEQLKSGTASVVCLLNNFYPREAKVQWKVDNALQSGNSQESVTEQDSKDSTYSLSSTLTLSKADYEKHKVYACEVTHQGLSSPVTKSFNRGEC
notes: as for B1
B9: in assay [1], the He/Con_2b was 78.3 % of GpH7-A5/GpH7-B3/GpL16-k0 (=100). Further, the He/Con_1a in assay [2] is 103 % of GpH7-A5/GpH7-B3/GpL16-k0 (=100).

B10: GpH7-A5/GpH7-B3 variant H268_08L/GpL16-k0 (He Ab) (antibody, human IgG1, kappa)
heavy 1: not shown
heavy 2: not shown
light: DIVMTQSPLSLPVTPGEPASISCQASESLVHSNRNTYLHWYLQKPGQSPQLLIYKVSNRFSGVPDRFSGSGSGTDFTLKISRVEAEDVGVYYCSQNTHVPPTFGQGTKVEIERTVAAPSVFIFPPSDEQLKSGTASVVCLLNNFYPREAKVQWKVDNALQSGNSQESVTEQDSKDSTYSLSSTLTLSKADYEKHKVYACEVTHQGLSSPVTKSFNRGEC
notes: as for B1
As to B10, the He/Con_2b in assay [1] is 67.8 % of GpH7-A5/GpH7-B3/GpL16-k0 (=100). For the same molecule, in assay [2], the He/Con_1a is 107 % of GpH7-A5/GpH7-B3/GpL16-k0 (=100).

B11: GpH7-A5/GpH7-B3 variant K326_12R/GpL16-k0 (He Ab) (antibody, human IgG1, kappa)
heavy 1: not shown
heavy 2: not shown
light: DIVMTQSPLSLPVTPGEPASISCQASESLVHSNRNTYLHWYLQKPGQSPQLLIYKVSNRFSGVPDRFSGSGSGTDFTLKISRVEAEDVGVYYCSQNTHVPPTFGQGTKVEIERTVAAPSVFIFPPSDEQLKSGTASVVCLLNNFYPREAKVQWKVDNALQSGNSQESVTEQDSKDSTYSLSSTLTLSKADYEKHKVYACEVTHQGLSSPVTKSFNRGEC
notes: as for B1
Consider B11, for which, in assay [1], the He/Con_2b is 89.2 % of GpH7-A5/GpH7-B3/GpL16-k0 (=100). Also, the He/Con_1a in assay [2] is 100 % of GpH7-A5/GpH7-B3/GpL16-k0 (=100).

B12: GpH7-A5/GpH7-B3 variant H268_07I/GpL16-k0 (He Ab) (antibody, human IgG1, kappa)
heavy 1: not shown
heavy 2: not shown
light: DIVMTQSPLSLPVTPGEPASISCQASESLVHSNRNTYLHWYLQKPGQSPQLLIYKVSNRFSGVPDRFSGSGSGTDFTLKISRVEAEDVGVYYCSQNTHVPPTFGQGTKVEIERTVAAPSVFIFPPSDEQLKSGTASVVCLLNNFYPREAKVQWKVDNALQSGNSQESVTEQDSKDSTYSLSSTLTLSKADYEKHKVYACEVTHQGLSSPVTKSFNRGEC
notes: as for B1
As for B12, the He/Con_2b in assay [1] is 88.9 % of GpH7-A5/GpH7-B3/GpL16-k0 (=100). Also, in assay [2], the He/Con_1a was 108 % of GpH7-A5/GpH7-B3/GpL16-k0 (=100).

B13: GpH7-A5/GpH7-B3 variant Y300_02A/GpL16-k0 (He Ab) (antibody, human IgG1, kappa)
heavy 1: not shown
heavy 2: not shown
light: DIVMTQSPLSLPVTPGEPASISCQASESLVHSNRNTYLHWYLQKPGQSPQLLIYKVSNRFSGVPDRFSGSGSGTDFTLKISRVEAEDVGVYYCSQNTHVPPTFGQGTKVEIERTVAAPSVFIFPPSDEQLKSGTASVVCLLNNFYPREAKVQWKVDNALQSGNSQESVTEQDSKDSTYSLSSTLTLSKADYEKHKVYACEVTHQGLSSPVTKSFNRGEC
notes: as for B1
As for B13, the He/Con_2b in assay [1] was 69.2 % of GpH7-A5/GpH7-B3/GpL16-k0 (=100). Also, the He/Con_1a in assay [2] was 112 % of GpH7-A5/GpH7-B3/GpL16-k0 (=100).

B14: GpH7-A5/GpH7-B3 variant S298_20W/GpL16-k0 (He Ab) (antibody, human IgG1, kappa)
heavy 1: not shown
heavy 2: not shown
light: DIVMTQSPLSLPVTPGEPASISCQASESLVHSNRNTYLHWYLQKPGQSPQLLIYKVSNRFSGVPDRFSGSGSGTDFTLKISRVEAEDVGVYYCSQNTHVPPTFGQGTKVEIERTVAAPSVFIFPPSDEQLKSGTASVVCLLNNFYPREAKVQWKVDNALQSGNSQESVTEQDSKDSTYSLSSTLTLSKADYEKHKVYACEVTHQGLSSPVTKSFNRGEC
notes: as for B1
For B14, the He/Con_2b in assay [1] was 41.1 % of GpH7-A5/GpH7-B3/GpL16-k0 (=100). In addition, the He/Con_1a in assay [2] is 104 % of GpH7-A5/GpH7-B3/GpL16-k0 (=100).
